Data taken from article PMC10415144, “Structural insights into CodY activation and DNA recognition” (Nucleic Acids Research, 2021).
Substitutions are numbered along the chain they refer to.

B1: Enterococcus faecalis CodY (EfCodY), full length (natural protein)
chain: GAMATLLEKTRQVNELLQKNNLFDVQAELPYNKMAMILGDILESNAYIISSSGDLLGYTEKLDVNNARIKNMFKEKKFPQGYTEAVDMLKVTEANIPIDSDLTAFPFESRELYPFGLTTIVPLYGAGKRLGTIILARVEKSFNEDDLVLAEYSATVVGMQILYHQSRTIEAEVRSATAVQMAINTLSYSELKAVHAIFEALDGEEGRLTASSIADEIGITRSVIVNALRKLESAGIIESRSLGMKGTYLKVLNQQFIKELEK
notes: also called CodY from Ef
B2: EfCodY quadruple mutant (Tyr186, Arg238, Leu240 and Tyr246 replaced with Ala) (natural protein)
chain: B1 chain with Y188A, R240A, L242A, Y248A
notes: also called EfCodY-mutant

Experiments:
[1] = target: the molecule itself; assay: mass photometry; Refeyn OneMP; 100 nM CodY, ligand-free, 20 mM Tris-HCl pH 8, 200 mM NaCl
[2] = target: the molecule itself; assay: mass photometry + SEC-MALS; data not shown; EfCodY quadruple mutant in solution

Row | Protein | stoichiometry N [1] | stoichiometry N [2]
1 | B1 | 2 | 
2 | B2 |  | 2
